Targets include TJP2_1, Q9UDY2; NHERF4_4, Q86UT5; GRIP2_7, Q9C0E4.
Assay in all cases: holdup assay
Parameters in all cases: key: below the threshold = too weak to quantify, mostly under pKd 3.1 to 4

The mark [1] stands for this setting: plain residues with an end cap or a label only (N-terminal biotin on a linker: ado-ado).
[2] abbreviates: modified: phospho on T at position -2 from the C-terminal residue.
[3] abbreviates: modified: phospho on T at position -1 from the C-terminal residue.

This note sets out measurements from article PMC9482650, “Quantitative fragmentomics allow affinity mapping of interactomes” (Nature Communications, 2022).

GRIP2_7, Q9C0E4, sequence (Q9C0E4 934-1023): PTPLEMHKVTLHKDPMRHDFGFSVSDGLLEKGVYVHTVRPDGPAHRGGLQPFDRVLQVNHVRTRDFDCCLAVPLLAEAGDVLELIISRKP
NHERF4_4, Q86UT5, sequence (Q86UT5 464-550): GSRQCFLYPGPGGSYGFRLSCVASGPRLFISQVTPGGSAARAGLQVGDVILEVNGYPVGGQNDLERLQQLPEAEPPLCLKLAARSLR
TJP2_1, Q9UDY2, sequence (Q9UDY2 24-128): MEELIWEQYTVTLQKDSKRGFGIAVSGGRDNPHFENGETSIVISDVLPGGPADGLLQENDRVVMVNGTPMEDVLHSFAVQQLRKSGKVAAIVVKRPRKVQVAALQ

One may read the pKd as the negative decadic logarithm of the Kd, by convention in mol/L. For the molecule PAPGQHTTQI [STK16, O75716], the pKd result is recorded as “below the threshold” with TJP2_1, Q9UDY2 (setting [1]); “below the threshold” with NHERF4_4, Q86UT5 (setting [1]); “below the threshold” with GRIP2_7, Q9C0E4 (setting [1]).

As to NASRTRITFV [MCM7, P33993], the pKd in the assay with TJP2_1, Q9UDY2 (setting [1]) was 5.34; in the assay with NHERF4_4, Q86UT5 (setting [1]), “below the threshold”; with GRIP2_7, Q9C0E4 (setting [1]), 4.27.

With DQPLEKSTKL [AKAP10, O43572], the pKd result with TJP2_1, Q9UDY2 (setting [1]) is listed as “below the threshold”; with NHERF4_4, Q86UT5 (setting [1]) it was “below the threshold”; with GRIP2_7, Q9C0E4 (setting [1]), “below the threshold”.

For GQSVDLVFPV [AKIP1, Q9NQ31], the negative-log Kd (pKd) result is “below the threshold” in the assay with TJP2_1, Q9UDY2 (setting [1]); “below the threshold” in the assay with NHERF4_4, Q86UT5 (setting [1]); 4.08 in the assay with GRIP2_7, Q9C0E4 (setting [1]).

Turning to LGHTPFVDEL [UQCRC2, P22695], the negative-log Kd (pKd) result with TJP2_1, Q9UDY2 (setting [1]) is “below the threshold”; with NHERF4_4, Q86UT5 (setting [1]), “below the threshold”; in the assay with GRIP2_7, Q9C0E4 (setting [1]) it was “below the threshold”.

RELVMRVTTV [MARCHF4, Q9P2E8]: the pKd in the assay with TJP2_1, Q9UDY2 (setting [1]) is 3.86; in the assay with NHERF4_4, Q86UT5 (setting [1]) it was “below the threshold”; in the assay with GRIP2_7, Q9C0E4 (setting [1]), “below the threshold”.

In the case of AEDEEIQTKM [UNC93A, Q86WB7], the pKd result with TJP2_1, Q9UDY2 (setting [1]) is recorded as “below the threshold”; with NHERF4_4, Q86UT5 (setting [1]), “below the threshold”; with GRIP2_7, Q9C0E4 (setting [1]), “below the threshold”.

For EEDTAEKDEL [HSPA5, P11021], the pKd entry with TJP2_1, Q9UDY2 (setting [1]) is reported as “below the threshold”; with NHERF4_4, Q86UT5 (setting [1]) it was “below the threshold”; with GRIP2_7, Q9C0E4 (setting [1]), “below the threshold”.

Turning to NVYGTESVKI [GRIA3, P42263], the pKd entry is “below the threshold” in the assay with TJP2_1, Q9UDY2 (setting [1]); 3.95 with NHERF4_4, Q86UT5 (setting [1]); “below the threshold” with GRIP2_7, Q9C0E4 (setting [1]).

As for ANGLMQTSKL [SSTR5, P35346], the pKd result is on record as “below the threshold” with TJP2_1, Q9UDY2 (setting [1]); “below the threshold” with NHERF4_4, Q86UT5 (setting [1]); “below the threshold” with GRIP2_7, Q9C0E4 (setting [1]).

Turning to DSATVRTYSC [PPFIA1, Q13136], the pKd result is “below the threshold” in the assay with TJP2_1, Q9UDY2 (setting [1]); “below the threshold” in the assay with NHERF4_4, Q86UT5 (setting [1]); 4.15 with GRIP2_7, Q9C0E4 (setting [1]).

Regarding QSPPNIYYKV [EFNB3, Q15768], the negative logarithm of the Kd (pKd) entry with TJP2_1, Q9UDY2 (setting [1]) is “below the threshold”; in the assay with NHERF4_4, Q86UT5 (setting [1]) it was “below the threshold”; in the assay with GRIP2_7, Q9C0E4 (setting [1]), 4.41.

Consider LSEFKAMDSF [CTNNA2, P26232], for which the pKd result in the assay with TJP2_1, Q9UDY2 (setting [1]) was “below the threshold”; with NHERF4_4, Q86UT5 (setting [1]) it was “below the threshold”; with GRIP2_7, Q9C0E4 (setting [1]), “below the threshold”.

Regarding RRVRKLPSTTL [RPS6KA1_-2P, Q15418], the pKd result with TJP2_1, Q9UDY2 (setting [2]) is listed as “below the threshold”; in the assay with NHERF4_4, Q86UT5 (setting [2]), “below the threshold”; in the assay with GRIP2_7, Q9C0E4 (setting [2]), “below the threshold”.

In the case of PLDSQQHTEV [FAT1, Q14517], the negative logarithm of the Kd (pKd) entry with TJP2_1, Q9UDY2 (setting [1]) is recorded as “below the threshold”; in the assay with NHERF4_4, Q86UT5 (setting [1]), “below the threshold”; in the assay with GRIP2_7, Q9C0E4 (setting [1]), “below the threshold”.

Take LEPAVRSSEL [SH2D3C, Q8N5H7]: the negative-log Kd (pKd) entry is “below the threshold” with TJP2_1, Q9UDY2 (setting [1]); 3.6 with NHERF4_4, Q86UT5 (setting [1]); “below the threshold” with GRIP2_7, Q9C0E4 (setting [1]).

For the molecule KSTTRSSSSC [NDE1, Q9NXR1;Q9NXR1-2], the negative-log Kd (pKd) result is “below the threshold” with TJP2_1, Q9UDY2 (setting [1]); “below the threshold” with NHERF4_4, Q86UT5 (setting [1]); “below the threshold” in the assay with GRIP2_7, Q9C0E4 (setting [1]).

On to DFRHKSSFVI [JAM3, Q9BX67], for which the pKd entry is on record as “below the threshold” with TJP2_1, Q9UDY2 (setting [1]); “below the threshold” with NHERF4_4, Q86UT5 (setting [1]); “below the threshold” with GRIP2_7, Q9C0E4 (setting [1]).

For GDGLDDEIAV [NOS1AP, O75052], the negative logarithm of the Kd (pKd) result was “below the threshold” in the assay with TJP2_1, Q9UDY2 (setting [1]); “below the threshold” with NHERF4_4, Q86UT5 (setting [1]); “below the threshold” with GRIP2_7, Q9C0E4 (setting [1]).

VRPGVKESLV [SCN4A, P35499]: the pKd entry was “below the threshold” with TJP2_1, Q9UDY2 (setting [1]); 3.96 in the assay with NHERF4_4, Q86UT5 (setting [1]); “below the threshold” with GRIP2_7, Q9C0E4 (setting [1]).

Consider SRPTKGPTLL [PLEKHH2, Q8IVE3], for which the negative-log Kd (pKd) with TJP2_1, Q9UDY2 (setting [1]) was 3.57; in the assay with NHERF4_4, Q86UT5 (setting [1]), 3.89; with GRIP2_7, Q9C0E4 (setting [1]), “below the threshold”.

Regarding RRVRKLPSTTL [RPS6KA1_-1P, Q15418], the negative logarithm of the Kd (pKd) entry is “below the threshold” in the assay with TJP2_1, Q9UDY2 (setting [3]); “below the threshold” in the assay with NHERF4_4, Q86UT5 (setting [3]); “below the threshold” with GRIP2_7, Q9C0E4 (setting [3]).

RPGFASESKV [ADRB1, P08588]: the pKd result with TJP2_1, Q9UDY2 (setting [1]) was “below the threshold”; in the assay with NHERF4_4, Q86UT5 (setting [1]), “below the threshold”; in the assay with GRIP2_7, Q9C0E4 (setting [1]) it was “below the threshold”.

In the case of RDFDYIADWC [PKN2, Q16513], the negative logarithm of the Kd (pKd) with TJP2_1, Q9UDY2 (setting [1]) is 4.48; with NHERF4_4, Q86UT5 (setting [1]), “below the threshold”; with GRIP2_7, Q9C0E4 (setting [1]), “below the threshold”.

For the molecule QNRIITKTDV [SMCHD1, A6NHR9], the pKd with TJP2_1, Q9UDY2 (setting [1]) is 3.61; in the assay with NHERF4_4, Q86UT5 (setting [1]), “below the threshold”; in the assay with GRIP2_7, Q9C0E4 (setting [1]) it was “below the threshold”.

In the case of LDKESFLTWL [YAP1, P46937], the negative logarithm of the Kd (pKd) amounted to 5.19 with TJP2_1, Q9UDY2 (setting [1]); 4.16 with NHERF4_4, Q86UT5 (setting [1]); 4.05 with GRIP2_7, Q9C0E4 (setting [1]).

Turning to RTQSSDSAYV [GJD2, Q9UKL4], the negative logarithm of the Kd (pKd) in the assay with TJP2_1, Q9UDY2 (setting [1]) is 4.09; with NHERF4_4, Q86UT5 (setting [1]), “below the threshold”; with GRIP2_7, Q9C0E4 (setting [1]) it was “below the threshold”.

LTAQEQPVYI [APBA1, Q02410]: the negative logarithm of the Kd (pKd) entry was “below the threshold” in the assay with TJP2_1, Q9UDY2 (setting [1]); “below the threshold” in the assay with NHERF4_4, Q86UT5 (setting [1]); 3.78 with GRIP2_7, Q9C0E4 (setting [1]).

For the molecule PASAKGPLGV [CLDN19, Q8N6F1], the negative-log Kd (pKd) entry in the assay with TJP2_1, Q9UDY2 (setting [1]) is given as “below the threshold”; with NHERF4_4, Q86UT5 (setting [1]), “below the threshold”; in the assay with GRIP2_7, Q9C0E4 (setting [1]), “below the threshold”.

For RQSILFSTEV [BCR, P11274], the pKd with TJP2_1, Q9UDY2 (setting [1]) was 3.69; with NHERF4_4, Q86UT5 (setting [1]) it was “below the threshold”; in the assay with GRIP2_7, Q9C0E4 (setting [1]) it was 3.66.

Consider GQETPLNTFC [MAP7D2, Q96T17], for which the negative-log Kd (pKd) entry with TJP2_1, Q9UDY2 (setting [1]) is “below the threshold”; with NHERF4_4, Q86UT5 (setting [1]) it was “below the threshold”; with GRIP2_7, Q9C0E4 (setting [1]), “below the threshold”.

For the molecule SVISRREWYV [NECTIN3, Q9NQS3], the negative-log Kd (pKd) in the assay with TJP2_1, Q9UDY2 (setting [1]) amounted to 4.63; with NHERF4_4, Q86UT5 (setting [1]), 4.07; with GRIP2_7, Q9C0E4 (setting [1]), 5.47.

As to YPKQMPLSQV [FZD8, Q9H461], the pKd result in the assay with TJP2_1, Q9UDY2 (setting [1]) is reported as “below the threshold”; with NHERF4_4, Q86UT5 (setting [1]) it was “below the threshold”; with GRIP2_7, Q9C0E4 (setting [1]), “below the threshold”.

Turning to NRVDSKETEC [ADAM17, P78536], the pKd result with TJP2_1, Q9UDY2 (setting [1]) was “below the threshold”; in the assay with NHERF4_4, Q86UT5 (setting [1]), “below the threshold”; with GRIP2_7, Q9C0E4 (setting [1]), “below the threshold”.

For the molecule QFTLRHWLKV [SLC6A3, Q01959], the negative-log Kd (pKd) entry was “below the threshold” with TJP2_1, Q9UDY2 (setting [1]); 3.65 with NHERF4_4, Q86UT5 (setting [1]); “below the threshold” with GRIP2_7, Q9C0E4 (setting [1]).

Consider PELESKESVL [SLC1A4, P43007], for which the pKd result was “below the threshold” with TJP2_1, Q9UDY2 (setting [1]); “below the threshold” with NHERF4_4, Q86UT5 (setting [1]); “below the threshold” in the assay with GRIP2_7, Q9C0E4 (setting [1]).

In the case of ETSLVKGIDI [DENND5A, Q6IQ26], the negative-log Kd (pKd) entry with TJP2_1, Q9UDY2 (setting [1]) was “below the threshold”; in the assay with NHERF4_4, Q86UT5 (setting [1]) it was 3.87; with GRIP2_7, Q9C0E4 (setting [1]), 3.58.

Turning to QYPGSPDSWV [PKP4, Q99569], the negative logarithm of the Kd (pKd) with TJP2_1, Q9UDY2 (setting [1]) is 4.25; with NHERF4_4, Q86UT5 (setting [1]) it was “below the threshold”; with GRIP2_7, Q9C0E4 (setting [1]), 3.96.

For SMLNRRTTPV [CACNG4, Q9UBN1], the pKd with TJP2_1, Q9UDY2 (setting [1]) was 3.97; in the assay with NHERF4_4, Q86UT5 (setting [1]) it was “below the threshold”; with GRIP2_7, Q9C0E4 (setting [1]), “below the threshold”.
